Data as given in article PMC2606670.

Tests used:
[1] = target: GST-ctβ382-401 Y390F (mouse | not stated) (UniProt P09690); assay: far-Western, overlay or dot blot
[2] = target: acetylcholine receptor containing beta subunit phosphorylated at Y390 (mouse (endogenous in myotubes)) (UniProt P04756); assay: co-IP
Sequence of UniProt P04756 (P04756 21-457, chain 1 of 4): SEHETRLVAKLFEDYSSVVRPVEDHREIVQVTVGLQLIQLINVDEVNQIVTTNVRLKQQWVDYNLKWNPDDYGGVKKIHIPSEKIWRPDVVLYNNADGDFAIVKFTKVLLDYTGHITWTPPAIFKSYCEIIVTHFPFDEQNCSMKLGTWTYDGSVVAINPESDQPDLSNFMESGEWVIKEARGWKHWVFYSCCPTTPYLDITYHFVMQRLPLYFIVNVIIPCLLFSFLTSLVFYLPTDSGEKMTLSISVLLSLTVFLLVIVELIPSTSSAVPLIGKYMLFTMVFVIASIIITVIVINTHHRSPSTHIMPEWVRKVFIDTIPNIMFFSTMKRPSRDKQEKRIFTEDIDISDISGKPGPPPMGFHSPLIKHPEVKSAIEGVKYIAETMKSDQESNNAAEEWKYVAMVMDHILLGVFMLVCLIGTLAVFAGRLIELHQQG
Sequence of UniProt P04756 (P09690 24-501, chain 2 of 4, further chain): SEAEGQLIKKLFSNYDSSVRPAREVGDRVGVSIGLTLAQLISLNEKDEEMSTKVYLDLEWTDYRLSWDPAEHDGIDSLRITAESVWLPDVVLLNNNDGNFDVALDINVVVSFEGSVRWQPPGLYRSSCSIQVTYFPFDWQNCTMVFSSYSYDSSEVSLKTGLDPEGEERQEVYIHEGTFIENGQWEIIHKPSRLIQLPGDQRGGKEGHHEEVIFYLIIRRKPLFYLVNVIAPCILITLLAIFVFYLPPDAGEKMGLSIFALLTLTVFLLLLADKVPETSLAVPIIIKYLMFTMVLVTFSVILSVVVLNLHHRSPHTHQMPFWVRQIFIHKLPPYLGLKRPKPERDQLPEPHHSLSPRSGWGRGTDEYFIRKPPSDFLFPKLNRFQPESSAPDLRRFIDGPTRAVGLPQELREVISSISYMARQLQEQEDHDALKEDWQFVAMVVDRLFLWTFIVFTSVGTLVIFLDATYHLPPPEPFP
Sequence of UniProt P04756 (P02716 25-520, chain 3 of 4, further chain): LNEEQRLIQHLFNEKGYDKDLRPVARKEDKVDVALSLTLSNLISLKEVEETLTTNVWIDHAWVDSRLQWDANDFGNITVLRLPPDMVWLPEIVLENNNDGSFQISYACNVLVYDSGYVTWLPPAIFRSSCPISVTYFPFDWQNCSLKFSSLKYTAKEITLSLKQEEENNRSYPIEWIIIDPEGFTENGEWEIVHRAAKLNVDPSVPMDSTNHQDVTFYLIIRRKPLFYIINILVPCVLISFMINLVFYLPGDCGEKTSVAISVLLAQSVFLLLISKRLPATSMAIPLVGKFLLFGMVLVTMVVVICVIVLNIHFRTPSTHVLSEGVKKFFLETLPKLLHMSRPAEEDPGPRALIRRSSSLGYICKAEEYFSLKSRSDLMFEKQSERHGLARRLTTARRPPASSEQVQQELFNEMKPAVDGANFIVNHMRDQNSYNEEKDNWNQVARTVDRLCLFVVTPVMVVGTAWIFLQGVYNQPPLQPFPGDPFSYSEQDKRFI
Sequence of UniProt P04756 (P04760 23-519, chain 4 of 4, further chain): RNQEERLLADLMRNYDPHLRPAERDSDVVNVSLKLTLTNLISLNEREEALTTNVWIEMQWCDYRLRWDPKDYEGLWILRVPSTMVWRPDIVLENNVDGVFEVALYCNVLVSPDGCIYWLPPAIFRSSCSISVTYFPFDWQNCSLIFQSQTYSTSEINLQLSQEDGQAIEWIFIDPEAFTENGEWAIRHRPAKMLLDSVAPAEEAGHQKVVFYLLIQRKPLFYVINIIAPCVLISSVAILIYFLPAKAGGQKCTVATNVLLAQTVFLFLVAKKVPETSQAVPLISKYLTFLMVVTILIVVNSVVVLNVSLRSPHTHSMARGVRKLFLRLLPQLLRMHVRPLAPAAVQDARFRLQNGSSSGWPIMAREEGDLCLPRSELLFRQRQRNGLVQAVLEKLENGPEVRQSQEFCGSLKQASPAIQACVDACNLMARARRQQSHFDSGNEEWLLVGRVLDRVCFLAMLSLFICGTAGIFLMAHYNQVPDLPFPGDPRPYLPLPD

| Binder | % of binding to β382-401 WT (% of binding to β382-401 WT) [1] | fold rapsyn associated, against AChR with non-phosphorylated β subunit [2] [fold] |
| --- | --- | --- |
| GST-rapsyn (natural protein) MGQDQTKQQIEKGLQLYQSNQTEKALQVWMKVLEKGSDLVGRFRVLGCLVTAHSEMGRYKEMLKFAVVQIDTARGLEDADFLLESYLNLARSNEKLCEFHKTISYCKTCLGLPGTRAGAQLGGQVSLSMGNAFLGLSLFQKALESFEKALRYAHNNDDTMLECRVCCSLGSFYAQVKDYEKALFFPCKAAELVNDYGKGWSLKYRAMSQYHMAVAYRLLGHLGSAMECCEESMKIALQHGDRPLQALCLLCFADIHRSRGDLETAFPRYDSAMSIMTEIGNRLGQVHVLLGVAKCWMARKVQDKALDAIEKAQDLAEEVGNKLSQLKLHCLSESIYRSKGLQRELRTHVVRFHECVEETELYCGLCGESIGERNSRLQALPCSHIFHLRCLQNNGTRSCPNCRRSSMKPGFV | 92 |  |
| rapsyn, endogenous in mouse myotubes (natural protein) MGQDQTKQQIEKGLQLYQSNQTEKALQVWMKVLEKGSDLVGRFRVLGCLVTAHSEMGRYKEMLKFAVVQIDTARGLEDADFLLESYLNLARSNEKLCEFHKTISYCKTCLGLPGTRAGAQLGGQVSLSMGNAFLGLSLFQKALESFEKALRYAHNNDDTMLECRVCCSLGSFYAQVKDYEKALFFPCKAAELVNDYGKGWSLKYRAMSQYHMAVAYRLLGHLGSAMECCEESMKIALQHGDRPLQALCLLCFADIHRSRGDLETAFPRYDSAMSIMTEIGNRLGQVHVLLGVAKCWMARKVQDKALDAIEKAQDLAEEVGNKLSQLKLHCLSESIYRSKGLQRELRTHVVRFHECVEETELYCGLCGESIGERNSRLQALPCSHIFHLRCLQNNGTRSCPNCRRSSMKPGFV |  | 2.3 |
